This note sets out measurements from patent US20230220042A1 (SHANGHAI JIAO TONG UNIVERSITY SCHOOL OF MEDICINE, published 2023).

Changes are numbered by the printed parent chain. Names and notes keep the numbering of the source.

To fix the notation:
T1: Biotin-FcγRIIB (human, UniProt P31994 43-217, limits assumed, biotin-labelled)
T1 construct: Bought, biotin-labelled; used at 1 µg/ml for staining and sorting; also called human FcγRIIB; CD32b
T1 sequence (looked up): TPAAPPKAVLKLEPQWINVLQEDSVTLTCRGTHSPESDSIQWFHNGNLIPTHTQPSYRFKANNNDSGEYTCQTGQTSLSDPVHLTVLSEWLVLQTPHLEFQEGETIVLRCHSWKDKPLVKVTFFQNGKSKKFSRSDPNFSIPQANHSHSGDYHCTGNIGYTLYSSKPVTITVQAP

T2: Biotin-FcγRIIB (human, UniProt P31994 43-217, limits assumed, biotin label)
T2 construct: Soluble labelled protein used to stain and sort the display cells; also called human FcγRIIB; CD32b
T2 sequence (looked up): T1 sequence (looked up)

B1: human IgG2 anti-mouse CD40 surface displayed antibody, Fc mutant P271G (antibody, name in EU numbering)
light chain (with the P2A rest): DTVLTQSPALAVSPGERVTISCRASDSVSTLMHWYQQKPGQQPKLLIYLASHLESGVPARFSGSGSGTDFTLTIDPVEADDTATYYCQQSWNDPWTFGGGTKLELKRTVAAPSVFIFPPSDEQLKSGTASVVCLLNNFYPREAKVQWKVDNALQSGNSQESVTEQDSKDSTYSLSSTLTLSKADYEKHKVYACEVTHQGLSSPVTKSFNRGECGSGATNFSLLKQAGDVEENPG
heavy chain: EVQLVESDGGLVQPGRSLKLPCAASGFTFSDYYMAWVRQAPTKGLEWVASISYDGSSTYYRDSVKGRFTISRDNAKSTLYLQMDSLRSEDTATYYCGRHSSYFDYWGQGVMVTVSSASTKGPSVFPLAPCSRSTSESTAALGCLVKDYFPEPVTVSWNSGALTSGVHTFPAVLQSSGLYSLSSVVTVPSSNFGTQTYTCNVDHKPSNTKVDKTVERKCCVECPPCPAPPVAGPSVFLFPPKPKDTLMISRTPEVTCVVVDVSHEDGEVQFNWYVDGVEVHNAKTKPREEQFNSTFRVVSVLTVVHQDWLNGKEYKCKVSNKGLPAPIEKTISKTKGQPREPQVYTLPPSREEMTKNQVSLTCLVKGFYPSDIAVEWESNGQPENNYKTTPPMLDSDGSFFLYSKLTVDKSRWQQGNVFSCSVMHEALHNHYTQKSLSLSPGKLEPPPSTVSNMATVAVLVVLGAAIVTGAVVAFVMKMRRRNTGGKGGDYALAPGSQTSDLSLPDCKVMVHDPHSLA
notes: as m1; positions are Eu numbers; copies: 2 + 2
B2: human IgG2 anti-mouse CD40 surface displayed antibody, Fc mutant S267E (antibody, name in EU numbering)
light chain (with the P2A rest): B1 light chain (with the P2A rest)
heavy chain: B1 heavy chain with S262E, G266P
notes: as for B1
B3: human IgG2 anti-mouse CD40 surface displayed antibody, Fc mutant P271V (antibody, name in EU numbering)
light chain (with the P2A rest): B1 light chain (with the P2A rest)
heavy chain: B1 heavy chain with G266V
notes: as for B1
B4: human IgG2 anti-mouse CD40 surface displayed antibody, S267E/S298G (antibody, name in EU numbering)
light chain (with the P2A rest): B1 light chain (with the P2A rest)
heavy chain: B1 heavy chain with S262E, G266P, S293G
notes: As m1 with the Fc mutations
B5: human IgG2 anti-mouse CD40 surface displayed antibody, P233G/S267E/S298G (antibody)
light chain (with the P2A rest): B1 light chain (with the P2A rest)
heavy: B1 heavy chain with P229G, S262E, G266P, S293G
notes: As m1 with the Fc mutations; copies: 2 + 2
B6: human IgG2 anti-mouse CD40 surface displayed antibody, L328W (antibody, name in EU numbering)
light chain (with the P2A rest): B1 light chain (with the P2A rest)
heavy chain: B1 heavy chain with G266P, L323W
notes: As m1 with the Fc mutation
B7: human IgG2 anti-mouse CD40 surface displayed antibody, S267E/A330S (antibody, name in EU numbering)
light chain (with the P2A rest): B1 light chain (with the P2A rest)
heavy chain: B1 heavy chain with S262E, G266P, A325S
notes: As m1 with the Fc mutations
B8: human IgG2 anti-mouse CD40 surface displayed antibody, P233G/S267E (antibody)
light chain (with the P2A rest): B1 light chain (with the P2A rest)
heavy: B1 heavy chain with P229G, S262E, G266P
notes: as for B5
B9: human IgG2 anti-mouse CD40 surface displayed antibody, Fc mutant S267E/P329R (antibody, name in EU numbering)
light chain (with the P2A rest): B1 light chain (with the P2A rest)
heavy chain: B1 heavy chain with S262E, G266P, P324R
notes: as for B1
B10: human IgG2 anti-mouse CD40 surface displayed antibody, Fc mutant P238Q/S267E (antibody, name in EU numbering)
light chain (with the P2A rest): B1 light chain (with the P2A rest)
heavy chain: B1 heavy chain with P233Q, S262E, G266P
notes: as for B1
B11: human IgG2 anti-mouse CD40 surface displayed antibody, Fc mutant L328P (antibody, name in EU numbering)
light chain (with the P2A rest): B1 light chain (with the P2A rest)
heavy chain: B1 heavy chain with G266P, L323P
notes: as for B1
B12: human IgG2 anti-mouse CD40 surface displayed antibody, Fc mutant L328A (antibody, name in EU numbering)
light chain (with the P2A rest): B1 light chain (with the P2A rest)
heavy chain: B1 heavy chain with G266P, L323A
notes: as for B1
B13: human IgG2 anti-mouse CD40 surface displayed antibody, Fc mutant L328W (antibody, name in EU numbering)
light chain (with the P2A rest): B1 light chain (with the P2A rest)
heavy chain: B1 heavy chain with G266P, L323W
notes: as for B1
B14: human IgG2 anti-mouse CD40 surface displayed antibody, Fc mutant P271G/I332L (antibody, name in EU numbering)
light chain (with the P2A rest): B1 light chain (with the P2A rest)
heavy chain: B1 heavy chain with I327L
notes: as for B1

The first assay concerns the target Biotin-FcγRIIB (human) (UniProt P31994). In words: NGS of 3T3 display library Cmix flow-sorted for FcγRIIB binding.
Molecule “human IgG2 anti-mouse CD40 surface displayed antibody, V234M/S267E/S298L/L328W” registered an enrichment factor, percentage after 3rd sorting/percentage after 2nd sorting of 5.13; a percentage after 2nd sorting of 0.1%; a percentage after 3rd sorting of 0.53%.

A further assay has as its target T1, Biotin-FcγRIIB. The experiment in a line: FACS sorting of displayed Fc library on biotin-FcγRIIB, NGS.
Regarding B1, the “Increased factor b Site 1 (point mutation/wild-type)” value is 4.7 and the “Increased factor b Site 2 (point mutation/wild-type)” value came to 4.7.

Consider B2, for which the “Increased factor b Site 1 (point mutation/wild-type)” value turned out to be 28.5.

Take B3: the “Increased factor b Site 2 (point mutation/wild-type)” value is 0.7.

Another assay addresses T2, Biotin-FcγRIIB. The experiment in a line: NGS of 3T3 display library IgG2_C01 flow-sorted for FcγRIIB binding. The source says:
Then flow cytometry is used for sorting the cells with high affinity to FcγRIIB for two to three rounds. […] IgG2_C01 is a combined mutation (Type I) library having at most 1 mutation in each of the four regions of P233-V240, V266-P271, S298-T299, and G327-I332; IgG2_C02 is a cell library made by combining the combined mutation (Type II) libraries of four regions of P233-V240, V266-P271, S298-T299 and G327-I332 together and transferring it into 3T3 cells.
In the case of B4, the “enrichment factor, percentage after 1st sorting/percentage before sorting” value worked out at 9.16 ratio; the “enrichment factor, percentage after 2nd sorting/percentage after 1st sorting” value was 19.2 ratio; the “enrichment factor, percentage after 2nd sorting/percentage before sorting” value stood at 176 ratio; the “increased factor, mutant enrichment factor/wild-type enrichment factor” value stood at 207 ratio. The “percentage after 1st sorting” value is 0.01% and the “percentage after 2nd sorting” value was found to be 0.25%.

For the molecule B5, the “enrichment factor, percentage after 1st sorting/percentage before sorting” value was determined as 7.13 ratio; the “enrichment factor, percentage after 2nd sorting/percentage after 1st sorting” value is 38.5 ratio; the “enrichment factor, percentage after 2nd sorting/percentage before sorting” value is 274 ratio; the “increased factor, mutant enrichment factor/wild-type enrichment factor” value is 323 ratio. Besides, the “percentage after 1st sorting” value is 0.01% and the “percentage after 2nd sorting” value was found to be 0.2%.

For B6, the “enrichment factor, percentage after 1st sorting/percentage before sorting” value stood at 1.75 ratio; the “enrichment factor, percentage after 2nd sorting/percentage after 1st sorting” value came out at 4.26 ratio; the “enrichment factor, percentage after 2nd sorting/percentage before sorting” value amounted to 7.46 ratio; the “increased factor, mutant enrichment factor/wild-type enrichment factor” value was 8.78 ratio. For the same molecule, the “percentage after 1st sorting” value was determined as 0.25% and the “percentage after 2nd sorting” value worked out at 1.05%.

In the case of B7, the “enrichment factor, percentage after 2nd sorting/percentage after 1st sorting” value worked out at 43.1 ratio; the “percentage after 1st sorting” value came to 0%; the “percentage after 2nd sorting” value came out at 0.03%.

With B8, the “enrichment factor, percentage after 1st sorting/percentage before sorting” value was 3.31 ratio; the “enrichment factor, percentage after 2nd sorting/percentage after 1st sorting” value was found to be 5.47 ratio; the “enrichment factor, percentage after 2nd sorting/percentage before sorting” value stood at 18.1 ratio; the “increased factor, mutant enrichment factor/wild-type enrichment factor” value is 21.3 ratio. For the same molecule, the “percentage after 1st sorting” value stood at 0.01% and the “percentage after 2nd sorting” value was 0.05%.

A further assay concerns the target T1, Biotin-FcγRIIB. The experiment in a line: magnetic sorting on biotin-FcγRIIB with unlabelled activating FcγRs, NGS; Library2. The protocol: (§1) 3T3 cells were collected by trypsin digestion, and a single cell suspension was prepared. […] The cells were incubated for 15 minutes on ice and then washed twice with MACS buffer and re-suspended in 100 μl MACS buffer. Twenty-five μl anti-Biotin magnetic beads were added, and the cells were incubated for 15 minutes on ice and then washed once with MACS buffer and re-suspended to 500 μl, and added to the LS column put in the magnetic field. The effluent was collected, washed with 3 mL of MACS buffer and collected; The LS column was then removed out of the magnetic field, and 5 mL of MACS buffer was used to rapidly elute the remaining cells from the sorting column to collect positive cells, which are the high I/A ratio cells.
(§2) The high-FcγRIIB-affinity cells obtained from the above flow cytometry sorting are further sorted by magnetic-activated sorting. The cells are incubated with the mixture of Biotin-labeled FcγRIIB and non-labeled activating FcγRs, and then the labeled cells are sorted by anti-Biotin magnetic beads. The enrichment ratios after sorting relative to before sorting are analyzed by NGS.
Take B3: the “Enrichment factor (percentage after sorting/percentage before sorting)” value is 3.52, the “Increased factor (mutation enrichment factor/wild-type enrichment factor)” value was 4.24, the “Percentage after sorting/unbinding percentage” value was 1090 and the “Percentage before sorting/unbinding percentage” value was 311.

The next assay addresses T1, Biotin-FcγRIIB. In words: magnetic sorting on biotin-FcγRIIB with unlabelled activating FcγRs, NGS; LibraryMix #4. On the procedure:
as §1, §2
As to B1, the “Enrichment factor (percentage after sorting/percentage before sorting)” value was found to be 3.66, the “Increased factor (mutation enrichment factor/wild-type enrichment factor)” value stood at 3.89, the “Percentage after sorting/unbinding percentage” value came out at 19 and the “Percentage before sorting/unbinding percentage” value was 5.18.

As for B9, the “Enrichment factor (percentage after sorting/percentage before sorting)” value came out at 4.85, the “Increased factor (mutation enrichment factor/wild-type enrichment factor)” value was determined as 5.16, the “Percentage after sorting/unbinding percentage” value was 6.17 and the “Percentage before sorting/unbinding percentage” value is 1.27.

Regarding B10, the “Enrichment factor (percentage after sorting/percentage before sorting)” value was 3.7, the “Increased factor (mutation enrichment factor/wild-type enrichment factor)” value stood at 3.93, the “Percentage after sorting/unbinding percentage” value turned out to be 4.36 and the “Percentage before sorting/unbinding percentage” value amounted to 1.18.

Regarding B2, the “Enrichment factor (percentage after sorting/percentage before sorting)” value came out at 2.86, the “Increased factor (mutation enrichment factor/wild-type enrichment factor)” value amounted to 3.04, the “Percentage after sorting/unbinding percentage” value was 52.6 and the “Percentage before sorting/unbinding percentage” value came out at 18.4.

For the molecule B11, the “Enrichment factor (percentage after sorting/percentage before sorting)” value is 2.16, the “Increased factor (mutation enrichment factor/wild-type enrichment factor)” value stood at 2.3, the “Percentage after sorting/unbinding percentage” value amounted to 29.6 and the “Percentage before sorting/unbinding percentage” value was 13.7.

In the case of B12, the “Enrichment factor (percentage after sorting/percentage before sorting)” value is 3.21 and the “Increased factor (mutation enrichment factor/wild-type enrichment factor)” value amounted to 3.41.

For B13, the “Enrichment factor (percentage after sorting/percentage before sorting)” value was 4.26 and the “Increased factor (mutation enrichment factor/wild-type enrichment factor)” value was found to be 4.53.

As to B14, the “Enrichment factor (percentage after sorting/percentage before sorting)” value was 2.82, the “Increased factor (mutation enrichment factor/wild-type enrichment factor)” value came to 3, the “Percentage after sorting/unbinding percentage” value was 16 and the “Percentage before sorting/unbinding percentage” value was 5.66.
